In paper PMC5115946 (Journal of molecular biology, 2016):

Assays:
AUC = molecular target: the molecule itself; assay: AUC
[1] = molecular target: UBCH5B (ubiquitin-conjugating enzyme E2 D2) (human, UniProt P62837 1-147); assay: AUC

B1: RING finger protein 4 (RNF4) (enzyme, human, UniProt P78317 1-190, looked up)
chain: MSTRKRRGGAINSRQAQKRTREATSTPEISLEAEPIELVETAGDEIVDLTCESLEPVVVDLTHNDSVVIVDERRRPRRNARRLPQDHADSCVVSSDDEELSRDRDVYVTTHTPRNARDEGATGLRPSGTVSCPICMDGYSEIVQNGRLIVSTECGHVFCSQCLRDSLKNANTCPTCRKKINHKRYHPIYI
stoichiometry N (AUC): 2
Kd [1]: 15 µM
